Holding throughout (conditions): both partners purified
Assay [1] has as its target T1, SANS_(CEN-PBM) with YFP-harmonin NPDZ1.PDZ2 ( | human, UniProt Q495M9 300-461; Q9Y6N9-1 1-301).
T1 construct: SANS (USH1G), residues 300-461 of UniProt Q495M9; as m41; Harmonin-a1 (USH1C), human, residues 1-301 of UniProt Q9Y6N9-1; as m31; also called SANS_(CEN-PBM)+^YFPNPDZ1.PDZ2; source: purified E. coli proteins mixed
T1 sequence (looked up) 1: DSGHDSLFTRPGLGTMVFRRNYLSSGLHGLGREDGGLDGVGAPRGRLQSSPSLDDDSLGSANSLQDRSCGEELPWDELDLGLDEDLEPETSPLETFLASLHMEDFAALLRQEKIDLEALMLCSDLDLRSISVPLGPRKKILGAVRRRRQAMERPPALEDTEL
T1 sequence (looked up) 2: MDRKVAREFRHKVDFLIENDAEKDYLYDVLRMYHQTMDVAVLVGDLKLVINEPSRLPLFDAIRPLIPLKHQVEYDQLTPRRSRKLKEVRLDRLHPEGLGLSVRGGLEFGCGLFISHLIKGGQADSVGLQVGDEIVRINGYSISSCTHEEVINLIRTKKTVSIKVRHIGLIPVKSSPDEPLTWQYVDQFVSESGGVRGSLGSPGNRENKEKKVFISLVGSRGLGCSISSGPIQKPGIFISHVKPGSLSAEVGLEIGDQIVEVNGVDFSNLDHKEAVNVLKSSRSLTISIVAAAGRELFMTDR
Description: MST; YFP-fused partner held together with a third protein (saturating concentrations; competition experiments), non-fluorescent protein titrated.

The target in assay [2] is T2, YFP-SANS_(CEN-PBM) saturated with harmonin NPDZ1.PDZ2 ( | human, UniProt Q495M9 300-461; Q9Y6N9-1 1-301).
T2 construct: SANS (USH1G), residues 300-461 of UniProt Q495M9; as m40; Harmonin-a1 (USH1C), human, residues 1-301 of UniProt Q9Y6N9-1; as m30; also called ^YFPSANS_(CEN-PBM)+NPDZ1.PDZ2; source: purified E. coli proteins mixed (saturating NPDZ1.PDZ2); not shown: YFP, N-terminal, kept
T2 sequence (looked up) 1: T1 sequence (looked up) 1
T2 sequence (looked up) 2: T1 sequence (looked up) 2
Described as above.

In assay [3] the target is T3, YFP-ANKS4B_(CEN-PBM) with harmonin NPDZ1.PDZ2 (human, UniProt Q8N8V4 259-417; Q9Y6N9-1 1-301).
T3 construct: ANKS4B, human, residues 259-417 of UniProt Q8N8V4; as m42; Harmonin-a1 (USH1C), human, residues 1-301 of UniProt Q9Y6N9-1; as m30; also called ^YFPANKS4b+NPDZ1.PDZ2; source: purified E. coli proteins mixed; not shown: YFP, N-terminal, kept
T3 sequence (looked up) 1: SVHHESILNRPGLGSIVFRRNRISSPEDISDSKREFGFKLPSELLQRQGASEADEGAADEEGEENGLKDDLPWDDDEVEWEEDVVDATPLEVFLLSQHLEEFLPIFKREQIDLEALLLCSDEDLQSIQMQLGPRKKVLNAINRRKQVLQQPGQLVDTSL
T3 sequence (looked up) 2: T1 sequence (looked up) 2
Described as above.

For assay [4], the target named is T4, Myo7a MF2 G1982R (deafness mutant) (human, UniProt Q13402-1 1702-2215, G1982R).
T4 construct: Myosin 7a, human, MF2, residues 1702-2215 of UniProt Q13402-1, with a deafness missense mutation; source: E. coli, purified similarly as wild type (Histrap, CaptoQ, gel filtration)
T4 sequence (looked up): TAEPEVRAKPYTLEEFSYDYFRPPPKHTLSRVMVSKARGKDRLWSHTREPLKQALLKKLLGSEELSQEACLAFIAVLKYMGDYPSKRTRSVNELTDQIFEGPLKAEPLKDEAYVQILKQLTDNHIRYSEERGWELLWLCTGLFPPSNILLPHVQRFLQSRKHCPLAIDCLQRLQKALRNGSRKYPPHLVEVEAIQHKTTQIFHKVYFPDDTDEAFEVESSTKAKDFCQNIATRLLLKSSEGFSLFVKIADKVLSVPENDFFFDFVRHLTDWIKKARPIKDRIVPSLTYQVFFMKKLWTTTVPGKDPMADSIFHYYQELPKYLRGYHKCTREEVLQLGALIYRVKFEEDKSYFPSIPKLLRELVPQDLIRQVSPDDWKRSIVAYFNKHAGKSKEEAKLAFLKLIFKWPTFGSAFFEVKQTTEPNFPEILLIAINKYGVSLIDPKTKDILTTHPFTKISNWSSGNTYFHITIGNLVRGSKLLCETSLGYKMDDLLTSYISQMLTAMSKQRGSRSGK
Put plainly: MST; YFP-fused partner constant at 100 nM, non-fluorescent protein titrated (16 two-fold dilutions); 20 mM Hepes pH 7.0, 100 mM NaCl, 1 mM EGTA, 0.5 mM TCEP, 0.05% Tween 20; Monolith NT.115.

In assay [5] the target is T5, Myo7a MF2 G2163S (deafness mutant) (human, UniProt Q13402-1 1702-2215, G2163S).
T5 construct: Myosin 7a, human, MF2, residues 1702-2215 of UniProt Q13402-1, with a deafness missense mutation; source: E. coli, purified similarly as wild type (Histrap, CaptoQ, gel filtration)
T5 sequence (looked up): T4 sequence (looked up) with R281G, G462S
Described as above.

Changes are numbered by the printed parent chain.

B1: Harmonin-a PDZ3c (non-fluorescent, as used in MST) (domain or fragment, human, UniProt Q9Y6N9-1 428-552, looked up)
chain: QDFRKYEEGFDPYSMFTPEQIMGKDVRLLRIKKEGSLDLALEGGVDSPIGKVVVSAVYERGAAERHGGIVKGDEIMAINGKIVTDYTLAEAEAALQKAWNQGGDWIDLVVAVCPPKEYDDELTFF
notes: Harmonin-a1 (USH1C), human, PDZ3 plus C-terminal peptide, residues 428-552 of UniProt Q9Y6N9-1; The methods say only that samples for ITC or crystallisation were digested with TEV protease; also called PDZ3c (isoA); source: E. coli BL21 (DE3) Rosetta, purified (Glutathione Sepharose 4B, size-exclusion chromatography)
For B1, the Kd in assay [1], in assay [2] and in assay [3] was above 100 µM in each case.

B2: YFP-Harmonin-a PDZ3c (domain or fragment, human, UniProt Q9Y6N9-1 428-552, looked up)
chain: B1 chain
notes: Harmonin-a1 (USH1C), human, residues 428-552 of UniProt Q9Y6N9-1; also called ^YFPPDZ3c (isoA); source: E. coli BL21 (DE3) Rosetta, purified (Glutathione Sepharose 4B, size-exclusion chromatography)
Turning to B2, the Kd in assay [4] and in assay [5] was above 60 µM in each case.

For the origin of these results see publication PMC5493754, “Myosin 7 and its adaptors link cadherins to actin” (Nature Communications, 2017).
